The target of test [1] is T1, cyno ILT4 9152 extracellular domain, including His-Avi Tag (cynomolgus monkey). Put plainly: SPR ProteOn XPR36, 37 C; antibody amine-coupled to GLC chip, ILT4 ECD-His-Avi as analyte; kinetic titration. The method, then: (§1) The antibody was amine-coupled to a GLC sensor chip in a Proteon XPR36 instrument (BioRad). […] All data were double-referenced, exported, and analyzed with BIAevaluation Software 4.1.1 using the kinetic titration model described by Karlsson et al (Karlsson et al. (2005) Analytical Biochem. 349:136). The running buffer consisted of 10 mM HEPES pH 7.4, 150 mM NaCl and 0.05% Tween-20. The assay temperature was 37° C.

Test [2] deals with T2, hILT4-His-Avi tag (human, UniProt Q8N423 22-459).
T2 construct: also called monomeric human ILT4; extracellular region of hILT4 linked to a His-Avi tag
The description is as above. On the procedure:
as §1

The target of test [3] is T2, hILT4-His-Avi tag. Put plainly: SPR Biacore T200, 37 C; antibody captured by anti-human Fc on CM4 chip, hILT4-His-Avi as analyte; 1:1 Langmuir fit. On the procedure: The running buffer was 10 mM HEPES pH 7.4 supplemented with 0.05% Tween-20 and 1 g/L BSA. All anti-ILT4 antibodies were captured on a CM4 chip with pre-immobilized anti-human Fc capture antibody from Southern Biotech (catalog number 2081-01). […] All data were double-referenced and fitted to a 1:1 Langmuir model with mass transport using Biacore T200 Evaluation Software version 3.1.
For orientation: Surface plasmon resonance follows binding to a sensor surface in real time, without labels.

The target in test [4] is T2, hILT4-His-Avi tag. Nature of the test: SPR Biacore T200, 37 C; antibody captured on protein A/G chip, monomeric hILT4 as analyte; kinetic fit.
For test [5], the target named is T1, cyno ILT4 9152 extracellular domain, …. Put plainly: SPR ProteOn XPR36, 37 C; antibody amine-coupled to GLC chip, ILT4 ECD-His-Avi as analyte. The method, then: as §1
Test [6] deals with T3, human ILT4 (hILT4) expressed on cells (human, UniProt Q8N423 22-597).
T3 construct: hILT4 on transfected CHO or 293T cells, or native on human monocytes and macrophages; also called LILRB2
Nature of the test: flow cytometry on hILT4-transfected CHO cells, PE anti-human IgG secondary, GMFI (PE); EC50 from the table below the graph; the table has no unit, the concentration axis is in ug/mL.

For test [7], the target named is T4, rhILT4-Fc (human, UniProt Q8N423-1 22-461).
T4 construct: also called rhILT4-Fc fusion protein with a murine Fc tail; not shown: murine Fc tail
Put plainly: flow cytometry blocking assay: antibody titrated (12 points) with rhILT4-Fc fixed at 30 µg/ml; rhILT4-Fc bound to HLA-A overexpressing CHO cells read as % Positive; blocked ligand: HLA-A; the IC50 table has no unit, the concentration axis is in ug/mL. In general terms: A flow cytometer gives signals particle by particle.

The target in test [8] is T5, human ILT5 (human, UniProt O75022 24-631).
T5 construct: whole, on cells; also called hILT5; LILRB3
Nature of the test: flow cytometry, 293T transfectants, antibody 20 µg/ml; stacked histograms, control: parental cells. The method, then: (§2) Individual ILT family members were overexpressed in 293T cells. Each transfectant was stained with 20 μg/ml of anti-ILT4 antibodies followed by 1 μg/ml of anti-human IgG secondary mAb. Binding of the antibodies to each transfectant was measured by flow cytometry.

Test [9] has as its target T6, human LILRA5 (human, UniProt A6NI73 42-299).
T6 construct: whole, on cells; also called hLILRA5
The description is as above. On the procedure:
as §2

Test [10] has as its target T7, human LILRA6 (human, UniProt Q6PI73 24-481).
T7 construct: whole, on cells; also called hLILRA6
The test is described as above. The method, then: as §2

The target of test [11] is T8, human ILT3 (human, UniProt Q8NHJ6 22-448).
T8 construct: whole, on cells; also called hILT3
The description is as above. The method, then: as §2

Test [12] has as its target T9, human LILRA4 (human, UniProt P59901 24-499).
T9 construct: whole, on cells; also called hLILRA4
The test is described as above. On the procedure: as §2

Test [13] addresses T10, human ILT2 (human, UniProt Q8NHL6 24-650).
T10 construct: whole, on cells; also called hILT2
Described as above. On the procedure: as §2

Test [14] deals with T11, human LIR8 (human, UniProt O75023 24-590).
T11 construct: whole, on cells; also called hLIR8
The test is described as above. The method, then:
as §2

In test [15] the target is T12, human LILRA2 (human, UniProt Q8N149 24-483).
T12 construct: whole, on cells; also called hLILRA2
Described as above. The method, then:
as §2

The target of test [16] is T3, human ILT4 (hILT4) expressed on cells. Nature of the test: flow cytometry cross-blocking on hILT4 CHO cells: unlabelled antibody titrated from 40 µg/mL, then PE-21D9.IgG1.1f at 1.5 µg/mL; competitor: PE-21D9; the 21A5 curve does NOT fall: GMFI (PE) goes from about 615 up to about 665, no blocking of PE-21D9; the printed EC50 belongs to this small rise; table without unit, axis in µg/mL. The source says: (§3) After washing, the samples were acquired on a FACSCanto™ cytometer (BD Bioscience, San Jose) and analyzed with Flowjo™ software (Tree Star, Inc, Ashland, Oreg.).

Test [17] shares this target. Put plainly: antibody titration flow cytometry binding assay on transfected cells, nonlinear regression.
Test [18] deals with T13, human LILRA1 (human, UniProt O75019 17-489).
T13 construct: whole, on cells; also called hLILRA1; LIRA1
The description is as above.

For test [19], the target named is T14, human LILRA3 (human, UniProt Q8N6C8 24-439).
T14 construct: whole, on cells; also called hLILRA3; LIRA3
The test is described as above.

Test [20] deals with T3, human ILT4 (hILT4) expressed on cells. Nature of the test: flow cytometry cross-blocking on hILT4 CHO cells: unlabelled antibody titrated from 40 µg/mL, then PE-2H2.IgG1.1f at 1.5 µg/mL; competitor: PE-2H2; GMFI (PE) falls from about 330 to about 25; the table calls the value EC50 and has no unit, the concentration axis is in µg/mL.
Excerpt: as §3

Test [21] deals with T4, rhILT4-Fc. Put plainly: flow cytometry blocking assay: antibody titrated (12 points) with rhILT4-Fc fixed at 30 µg/ml; rhILT4-Fc bound to HLA-B overexpressing CHO cells read as % Positive; blocked ligand: HLA-B; the IC50 table has no unit, the concentration axis is in ug/mL.

Several values for one entry are separate records, joined by “and”; a condition that tells them apart may be missing. Equal values may be shown once.

This note sets out measurements from US20200079848A1 (Five Prime, published 2020).

T1 sequence (chain, as listed by the source limits assumed): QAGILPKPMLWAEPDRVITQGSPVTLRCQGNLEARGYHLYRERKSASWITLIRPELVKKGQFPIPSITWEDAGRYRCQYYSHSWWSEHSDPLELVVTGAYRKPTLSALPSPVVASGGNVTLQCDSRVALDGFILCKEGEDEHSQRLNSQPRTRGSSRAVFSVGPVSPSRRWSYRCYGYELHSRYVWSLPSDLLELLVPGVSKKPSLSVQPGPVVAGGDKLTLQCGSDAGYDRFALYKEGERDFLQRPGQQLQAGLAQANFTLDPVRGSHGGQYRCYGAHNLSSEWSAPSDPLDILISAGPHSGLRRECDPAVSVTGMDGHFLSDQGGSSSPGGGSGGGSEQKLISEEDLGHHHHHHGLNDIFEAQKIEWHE
T3 sequence (Q8N423 other isoform, or with tags, fused parts or gaps): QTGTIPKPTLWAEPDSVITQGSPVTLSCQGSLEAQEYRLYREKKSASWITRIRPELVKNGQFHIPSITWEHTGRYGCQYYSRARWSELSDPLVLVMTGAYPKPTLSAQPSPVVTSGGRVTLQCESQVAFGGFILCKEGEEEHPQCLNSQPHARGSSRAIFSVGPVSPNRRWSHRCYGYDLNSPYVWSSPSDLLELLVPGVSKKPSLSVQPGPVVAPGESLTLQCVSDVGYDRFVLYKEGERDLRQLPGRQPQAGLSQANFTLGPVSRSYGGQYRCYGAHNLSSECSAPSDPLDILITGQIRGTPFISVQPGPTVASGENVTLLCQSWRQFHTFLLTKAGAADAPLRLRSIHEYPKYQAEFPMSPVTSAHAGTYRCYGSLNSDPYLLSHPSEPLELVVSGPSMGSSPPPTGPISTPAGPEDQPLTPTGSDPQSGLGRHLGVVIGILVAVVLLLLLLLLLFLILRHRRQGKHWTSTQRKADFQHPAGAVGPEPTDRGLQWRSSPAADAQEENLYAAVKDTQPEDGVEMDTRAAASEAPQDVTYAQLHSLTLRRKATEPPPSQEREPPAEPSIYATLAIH
T2 sequence (Q8N423 other isoform, or with tags, fused parts or gaps): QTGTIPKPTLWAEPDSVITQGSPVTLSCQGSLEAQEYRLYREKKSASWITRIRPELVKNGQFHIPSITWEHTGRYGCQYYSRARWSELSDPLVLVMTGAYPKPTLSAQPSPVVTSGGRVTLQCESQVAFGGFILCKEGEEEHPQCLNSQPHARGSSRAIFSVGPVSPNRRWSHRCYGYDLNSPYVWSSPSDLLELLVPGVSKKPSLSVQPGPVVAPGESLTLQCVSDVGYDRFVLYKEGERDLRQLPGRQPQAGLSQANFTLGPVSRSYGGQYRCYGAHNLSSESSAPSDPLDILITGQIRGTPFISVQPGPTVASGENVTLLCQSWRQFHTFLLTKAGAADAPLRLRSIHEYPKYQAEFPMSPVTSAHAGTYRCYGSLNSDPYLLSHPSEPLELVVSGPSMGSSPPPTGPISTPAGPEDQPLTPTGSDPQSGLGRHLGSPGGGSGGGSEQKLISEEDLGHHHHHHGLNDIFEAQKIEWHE
T4 sequence (Q8N423 other isoform, or with tags, fused parts or gaps): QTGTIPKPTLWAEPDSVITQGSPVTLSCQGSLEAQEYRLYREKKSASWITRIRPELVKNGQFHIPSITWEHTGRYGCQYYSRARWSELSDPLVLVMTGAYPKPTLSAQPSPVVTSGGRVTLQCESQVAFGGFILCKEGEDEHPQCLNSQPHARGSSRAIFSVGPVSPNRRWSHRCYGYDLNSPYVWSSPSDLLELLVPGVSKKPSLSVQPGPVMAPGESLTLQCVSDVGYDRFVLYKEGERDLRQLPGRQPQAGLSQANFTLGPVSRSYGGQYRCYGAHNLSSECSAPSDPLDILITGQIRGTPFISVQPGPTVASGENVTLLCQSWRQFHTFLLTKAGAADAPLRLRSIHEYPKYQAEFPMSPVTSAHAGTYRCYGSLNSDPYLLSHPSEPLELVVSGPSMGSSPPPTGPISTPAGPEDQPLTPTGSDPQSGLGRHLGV
T9 sequence (P59901 24-499): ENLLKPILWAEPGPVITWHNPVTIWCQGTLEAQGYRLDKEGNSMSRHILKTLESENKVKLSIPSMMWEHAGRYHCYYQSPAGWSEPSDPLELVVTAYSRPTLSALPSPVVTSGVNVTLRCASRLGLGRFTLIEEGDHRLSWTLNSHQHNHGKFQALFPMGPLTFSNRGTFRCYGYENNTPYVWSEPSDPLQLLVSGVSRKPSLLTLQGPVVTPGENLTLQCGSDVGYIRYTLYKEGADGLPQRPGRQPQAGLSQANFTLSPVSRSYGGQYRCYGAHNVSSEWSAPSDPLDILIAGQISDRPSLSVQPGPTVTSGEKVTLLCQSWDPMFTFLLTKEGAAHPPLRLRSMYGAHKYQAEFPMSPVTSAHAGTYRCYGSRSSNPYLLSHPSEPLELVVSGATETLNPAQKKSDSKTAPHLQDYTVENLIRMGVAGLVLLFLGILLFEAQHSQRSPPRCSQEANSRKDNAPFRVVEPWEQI
T6 sequence (A6NI73 42-299): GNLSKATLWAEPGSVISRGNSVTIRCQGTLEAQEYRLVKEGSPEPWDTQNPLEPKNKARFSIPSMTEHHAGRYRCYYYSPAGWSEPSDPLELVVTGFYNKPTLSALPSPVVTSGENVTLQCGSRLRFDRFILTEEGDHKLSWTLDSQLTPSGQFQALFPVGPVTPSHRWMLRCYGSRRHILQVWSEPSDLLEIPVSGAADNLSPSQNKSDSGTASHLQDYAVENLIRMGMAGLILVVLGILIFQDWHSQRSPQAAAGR
T7 sequence (Q6PI73 24-481): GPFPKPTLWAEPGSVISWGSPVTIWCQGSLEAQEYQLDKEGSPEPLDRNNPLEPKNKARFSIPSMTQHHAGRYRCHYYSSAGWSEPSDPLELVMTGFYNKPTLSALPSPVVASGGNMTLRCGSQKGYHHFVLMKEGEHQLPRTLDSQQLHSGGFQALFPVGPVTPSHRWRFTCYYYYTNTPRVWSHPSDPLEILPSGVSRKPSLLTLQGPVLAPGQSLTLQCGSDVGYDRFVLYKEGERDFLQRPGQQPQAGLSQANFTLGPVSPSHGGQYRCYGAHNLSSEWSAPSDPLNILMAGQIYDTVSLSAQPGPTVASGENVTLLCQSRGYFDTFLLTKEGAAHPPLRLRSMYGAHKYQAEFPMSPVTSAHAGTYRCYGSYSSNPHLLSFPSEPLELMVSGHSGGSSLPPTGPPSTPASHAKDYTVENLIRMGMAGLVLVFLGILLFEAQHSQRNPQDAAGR
T11 sequence (O75023 24-590): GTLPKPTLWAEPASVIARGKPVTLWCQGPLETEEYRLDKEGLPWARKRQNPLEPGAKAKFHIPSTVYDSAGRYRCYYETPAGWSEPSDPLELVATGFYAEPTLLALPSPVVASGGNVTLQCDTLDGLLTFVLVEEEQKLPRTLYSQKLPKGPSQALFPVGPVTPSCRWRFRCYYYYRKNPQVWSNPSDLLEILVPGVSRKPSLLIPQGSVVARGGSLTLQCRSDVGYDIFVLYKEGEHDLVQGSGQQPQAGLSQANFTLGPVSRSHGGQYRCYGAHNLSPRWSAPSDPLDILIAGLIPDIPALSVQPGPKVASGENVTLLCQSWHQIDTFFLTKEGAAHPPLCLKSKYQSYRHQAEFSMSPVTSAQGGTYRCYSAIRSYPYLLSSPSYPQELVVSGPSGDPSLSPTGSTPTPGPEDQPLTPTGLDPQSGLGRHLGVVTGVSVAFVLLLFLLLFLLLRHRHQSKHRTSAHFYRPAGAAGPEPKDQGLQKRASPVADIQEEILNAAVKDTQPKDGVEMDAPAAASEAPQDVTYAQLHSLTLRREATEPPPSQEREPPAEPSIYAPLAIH
T14 sequence (Q8N6C8 24-439): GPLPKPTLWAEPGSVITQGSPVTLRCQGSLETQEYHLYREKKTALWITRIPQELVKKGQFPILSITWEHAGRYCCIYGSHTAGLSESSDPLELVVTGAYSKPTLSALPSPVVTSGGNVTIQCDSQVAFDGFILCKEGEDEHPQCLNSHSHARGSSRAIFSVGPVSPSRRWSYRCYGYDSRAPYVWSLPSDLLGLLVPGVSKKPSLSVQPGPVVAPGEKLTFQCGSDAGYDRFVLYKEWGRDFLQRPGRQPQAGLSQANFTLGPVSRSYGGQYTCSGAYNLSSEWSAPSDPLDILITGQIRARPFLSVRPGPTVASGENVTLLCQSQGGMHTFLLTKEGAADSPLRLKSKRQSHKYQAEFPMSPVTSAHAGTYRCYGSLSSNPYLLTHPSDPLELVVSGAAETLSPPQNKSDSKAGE
T13 sequence (O75019 17-489): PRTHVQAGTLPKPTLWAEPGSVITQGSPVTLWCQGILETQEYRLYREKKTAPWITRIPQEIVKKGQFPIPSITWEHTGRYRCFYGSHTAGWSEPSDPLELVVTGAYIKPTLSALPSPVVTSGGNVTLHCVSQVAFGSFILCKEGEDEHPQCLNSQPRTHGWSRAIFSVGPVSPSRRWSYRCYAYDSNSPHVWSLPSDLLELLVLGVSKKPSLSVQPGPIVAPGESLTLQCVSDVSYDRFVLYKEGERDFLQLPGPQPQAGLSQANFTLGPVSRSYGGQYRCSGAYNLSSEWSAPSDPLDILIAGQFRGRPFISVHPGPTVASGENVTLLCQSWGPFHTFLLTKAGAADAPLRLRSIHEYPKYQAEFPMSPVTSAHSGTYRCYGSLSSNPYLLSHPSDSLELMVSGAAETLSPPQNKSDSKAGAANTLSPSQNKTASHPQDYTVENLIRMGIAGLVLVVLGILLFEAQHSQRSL

B1: 21D9.IgG1.3 (antibody)
heavy: EGQLLESGGDLVQPGGSLRLSCATSGFTFSNYAMNWVRQAPGKGLEWISVISVSGGSTYYADSVKGRFTISRDNSKNTLYLQMNSLRAEDTAVYYCAKDYYYDSGSYYDSFFDYWGQGTLVTVSSASTKGPSVFPLAPSSKSTSGGTAALGCLVKDYFPEPVTVSWNSGALTSGVHTFPAVLQSSGLYSLSSVVTVPSSSLGTQTYICNVNHKPSNTKVDKRVEPKSCDKTHTCPPCPAPEAEGAPSVFLFPPKPKDTLMISRTPEVTCVVVDVSHEDPEVKFNWYVDGVEVHNAKTKPREEQYNSTYRVVSVLTVLHQDWLNGKEYKCKVSNKALPAPIEKTISKAKGQPREPQVYTLPPSREEMTKNQVSLTCLVKGFYPSDIAVEWESNGQPENNYKTTPPVLDSDGSFFLYSKLTVDKSRWQQGNVFSCSVMHEALHNHYTQKSLSLSPG
light: not shown
notes: also called 21D9 WT; ILT4.6.IgG1.3
By Kd is commonly meant the concentration at which binding is half-saturated. Low readings indicate higher affinity, high ones lower affinity. In general, koff refers to the first-order rate constant of dissociation. For orientation: kon means the rate constant with which the complex forms. In general, EC50 refers to the concentration that produces a half-maximal response. For the molecule B1, in test [1], the Kd was 4 nM, the koff was 0.0035 s⁻¹ and the kon worked out at 880000 M⁻¹ s⁻¹. In test [2], this molecule came in with a Kd of 0.32 nM, a koff of 0.00026 s⁻¹ and a kon of 820000 M⁻¹ s⁻¹. For the same molecule, in test [3], binding was characterised by a dissociation constant (Kd) of 0.5 nM, the app. act. is 70%, the off-rate (koff) amounted to 0.00054 s⁻¹ and the association rate constant (kon) turned out to be 1.1e+06 M⁻¹ s⁻¹. Also, in test [4], the Kd was 0.31 nM and 0.32 nM and 0.37 nM; the koff was 0.001 s⁻¹ and 0.0011 s⁻¹; the kon was 3.3e+06 M⁻¹ s⁻¹ and 3.2e+06 M⁻¹ s⁻¹ and 3e+06 M⁻¹ s⁻¹. Further, in test [5], the “fold weaker affinity than for human ILT4” value was around 12 fold. Besides, in test [6], the concentration for a half-maximal effect (EC50) was 0.0127 µg/mL.

B2: 21A5.IgG1.3 (antibody, V domains shown)
VH: QVQLVQSGAEVKKPGASVKVSCKASGYTFTDYYLHWVRQAPGQGLEWMGIFHPSGDITSSAQNFQGRVTMIRDTSTSTVYMELSSLRSEDTAVYYCARGGVLRYLDWSHAFDIWGQGTMVTVSS
VL: EIALTQSPGTLSLSPGERATLSCRASQSVSSSYLAWYQQKPGQAPRLLIYGASSRATGIPDRFSGSGSGTDFTLTISRLEPEDFAVYYCQQYGSTFGGGTKVEIKR
notes: Fully human antibody, IgG1.3, kappa; also called 21A5 WT; 21A5WT
As a reminder, the IC50 is the concentration that inhibits the measured activity by half. Read a high IC50 as lower potency. As for B2, the 50% inhibitory concentration (IC50) in test [7] is 3.83 µg/mL; in test [21], 1.61 µg/mL. The binding result in [8], in test [9], in test [10], in test [11], in test [12] and in test [13] was “no binding (tested: 20 µg/ml)” each time. For the same molecule, the binding result in test [14] and in test [15] was “no binding (tested: 20 µg/ml)” in each case. The concentration for a half-maximal effect (EC50) in test [16] is 0.0898 µg/mL; in test [17], 0.091 µg/mL; in test [18], 12.5 µg/mL; in test [19], 9.18 µg/mL; in test [20], 0.0738 µg/mL; in test [6], 0.0518 µg/mL. Further, the figures for the Kd in test [3] and in test [4] were 0.023 nM and 0.14 nM, respectively. Besides, the figures for the app. act. in [3] and in [4] were 98% and 126%, respectively. In addition, the dissociation rate constant (koff) is 1.2e-05 s⁻¹ in test [3] and 0.00017 s⁻¹ in test [4]. Also, the kon stood at 520000 M⁻¹ s⁻¹ in test [3] and 1.2e+06 M⁻¹ s⁻¹ in test [4].
